Results: article PMC4596688 (2015)
Ends that are not written are not given here. * marks the point of attachment. FITC = O=C1OC2(c3ccc(O)cc3Oc3cc(O)ccc32)c2ccc(NC(=S)*)cc21

How the values were obtained:
[1] = target: T1, Full-length human CRM1 (HsCRM1) (human, UniProt O14980 1-1071); assay: MST; direct titration, left panel
[2] = target: T1, Full-length human CRM1 (HsCRM1); assay: MST; direct titration, right panel
[3] = target: T1, Full-length human CRM1 (HsCRM1); assay: MST; direct titration, middle panel
[4] = target: T1, Full-length human CRM1 (HsCRM1); assay: MST; competition with FITC-PKI^NES

T1 sequence (O14980 whole entry): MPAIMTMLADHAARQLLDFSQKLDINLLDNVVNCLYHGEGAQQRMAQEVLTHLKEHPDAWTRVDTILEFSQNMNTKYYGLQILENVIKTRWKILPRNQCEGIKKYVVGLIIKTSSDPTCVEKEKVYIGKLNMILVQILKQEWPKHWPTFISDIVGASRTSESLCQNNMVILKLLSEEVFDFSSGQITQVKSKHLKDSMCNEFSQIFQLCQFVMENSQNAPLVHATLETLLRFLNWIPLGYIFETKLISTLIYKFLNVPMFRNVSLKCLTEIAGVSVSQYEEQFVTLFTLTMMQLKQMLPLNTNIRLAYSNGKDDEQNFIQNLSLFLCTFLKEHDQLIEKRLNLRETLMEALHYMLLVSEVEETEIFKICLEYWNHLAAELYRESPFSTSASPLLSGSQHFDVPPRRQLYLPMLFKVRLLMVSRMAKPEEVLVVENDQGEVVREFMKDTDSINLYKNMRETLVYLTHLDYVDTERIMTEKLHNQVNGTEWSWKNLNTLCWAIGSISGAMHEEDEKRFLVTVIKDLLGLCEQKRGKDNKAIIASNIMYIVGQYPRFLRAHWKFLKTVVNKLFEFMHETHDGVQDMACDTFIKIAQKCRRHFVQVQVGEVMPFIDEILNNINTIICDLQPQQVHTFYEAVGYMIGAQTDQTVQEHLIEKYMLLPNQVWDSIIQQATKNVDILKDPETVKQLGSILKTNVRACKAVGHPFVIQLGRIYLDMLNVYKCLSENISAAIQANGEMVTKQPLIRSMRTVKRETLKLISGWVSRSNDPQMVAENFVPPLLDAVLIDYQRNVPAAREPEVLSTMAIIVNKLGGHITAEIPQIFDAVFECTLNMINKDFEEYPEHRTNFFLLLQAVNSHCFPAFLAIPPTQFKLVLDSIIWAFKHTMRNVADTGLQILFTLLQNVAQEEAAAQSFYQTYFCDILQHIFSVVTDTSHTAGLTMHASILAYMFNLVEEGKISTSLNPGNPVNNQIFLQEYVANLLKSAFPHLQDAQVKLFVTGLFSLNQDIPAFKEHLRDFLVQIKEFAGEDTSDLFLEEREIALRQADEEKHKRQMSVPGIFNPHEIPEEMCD

Row | Kd [1] [nM] | Kd [2] [nM] | Kd [3] [nM] | Kd [4] [nM] | Binder
1 | 37 | 44 | 30 | – | {FITC}-SGNSNELALKLAGLDINKT [FITC-PKI^NES peptide (FITC-SGNSNELALKLAGLDINKT)]
2 | – | – | – | 36 | SNELALKLAGLDI [MBP-PKI^NES]
3 | – | – | – | 12000 | MEELSQALASSFSVSQ [MBP-SNUPN^NES]
